Source: publication PMC5814804 (Nucleic Acids Research, 2018)

B1: Thermotoga maritima TsaB (natural protein, UniProt Q9WZX7 1-206, looked up)
chain: MNVLALDTSQRIRIGLRKGEDLFEISYTGEKKHAEILPVVVKKLLDELDLKVKDLDVVGVGIGPGGLTGLRVGIATVVGLVSPYDIPVAPLNSFEMTAKSCPADGVVLVARRARKGYHYCAVYLKDKGLNPLKEPSVVSDEELEEITKEFSPKIVLKDDLLISPAVLVEESERLFREKKTIHYYEIEPLYLQKSIAELNWEKKKRG
B2: Thermotoga maritima TsaD (natural protein, UniProt Q9WXZ2 1-327, looked up)
chain: MRVLGIETSCDETAVAVLDDGKNVVVNFTVSQIEVHQKFGGVVPEVAARHHLKNLPILLKKAFEKVPPETVDVVAATYGPGLIGALLVGLSAAKGLAISLEKPFVGVNHVEAHVQAVFLANPDLKPPLVVLMVSGGHTQLMKVDEDYSMEVLGETLDDSAGEAFDKVARLLGLGYPGGPVIDRVAKKGDPEKYSFPRPMLDDDSYNFSFAGLKTSVLYFLQREKGYKVEDVAASFQKAVVDILVEKTFRLARNLGIRKIAFVGGVAANSMLREEVRKRAERWNYEVFFPPLELCTDNALMVAKAGYEKAKRGMFSPLSLNADPNLNV

Experiments:
[1] = target: B2; test: native gel or EMSA
[2] = target: the molecule itself; test: SEC

B1
binding result [1]: binds
stoichiometry N [2]: 2

B2
stoichiometry N [2]: 2
